From the supplement of paper PMC10567573
± gives the standard deviation.

Assay: protein stability index of a GFP-peptide fusion (GPS, HEK-293T) (PSI 1-6); higher = more stable
[1] = treatment: DMSO, c terminus: a fixed tail appended
[2] = treatment: MLN4924 1 uM, 8 h, c terminus: a fixed tail appended
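Note: 24-mer peptide tiles fused after GFP, lentivirally expressed, FACS-sorted into six equal bins by GFP/DsRed ratio, decoded by Illumina sequencing, PSI is the read-weighted mean bin number.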

| Sequence | protein stability index [1] | protein stability index [2] | protein stability index (treatment: DMSO, c terminus: native) | protein stability index (treatment: MLN4924 1 uM, 8 h, c terminus: native) |
| --- | --- | --- | --- | --- |
| AALCALGKDCFLELAPDFVGDILW [ETS1] | 2.51 ± 0.41 | 2.95 ± 0.77 | – | – |
| VRDSDDNSPLHIAALNNHPDIMNL [FEM1C] | 4.26 ± 0.24 | 4.42 ± 0.2 | – | – |
| TIPATLLVDHVGSKTFLCIGSSVM [SLC2A12] | 2.69 ± 0.5 | 2.34 ± 0.44 | – | – |
| LKFDMKYMNFRVKACNKAVAGEFS [FSD1] | 2.34 ± 0.26 | 2.17 ± 0.2 | – | – |
| SPWDQEERPAQRDCSFPGLPRHQD [TRAF3IP2] | 5.48 ± 0.23 | 5.36 ± 0.38 | – | – |
| SALEGRADTTTGSAAGPPLSEDDK [EHMT1] | 5.14 ± 0.83 | 5.38 ± 0.43 | – | – |
| RIHERLVAGSLAGAIAQSSIYPME [SLC25A25] | 2.74 ± 0.52 | 2.56 ± 0.27 | – | – |
| LRHKDEEEEDDDDIHITARIESDL [DRICH1] | 5.41 ± 0.12 | 5.37 ± 0.18 | – | – |
| YEWARDHRAHHKFSETHADPHNSR [SCD] | 3.96 ± 0.28 | 4.12 ± 0.18 | – | – |
| ATYIFIFIGETLLSMNWAIVADIL [SPNS1] | 3.13 ± 0.39 | 2.68 ± 0.74 | – | – |
| PEGLDSDFLAVLSDYPSPDISPPI [SLA] | 4.08 ± 0.11 | 4.14 ± 0.097 | – | – |
| CREQLDIMNDLSNRVWSISQEPDP [TRIM14] | 3.43 ± 0.28 | 3.43 ± 0.21 | – | – |
| MEKKSKPKNSVWKRLKSPFRKKKD [RIT1] | 3.69 ± 0.12 | 3.88 ± 0.3 | – | – |
| LEEQGATWRHRETLIIAVLVSASI [FATE1] | 2.77 ± 0.49 | 2.7 ± 0.44 | – | – |
| CSVFPATDAPEQFISQVTVLKYFS [PLK2] | 2.49 ± 0.55 | 2.56 ± 0.5 | – | – |
| TPVPTITANVTSVPVPPAAAPPPP [BRD3] | 4.92 ± 0.17 | 5.04 ± 0.17 | – | – |
| INYCALNKPGCEHECVNMEESYYC [MATN2] | 3.26 ± 0.7 | 3.28 ± 0.64 | – | – |
| FTAKHANKVKVLDAPVPDCLGVHC [FSD1] | 2.75 ± 0.26 | 3.04 ± 0.31 | – | – |
| VLNEEGICTQKCALNWTDIPVAME [VPS39] | 3.43 ± 0.18 | 3.39 ± 0.28 | – | – |
| GSIPEFFHIMKRKFTNKEWETIRS [AASDHPPT] | 2.73 ± 0.27 | 2.46 ± 0.3 | – | – |
| SSEVDELIHKADEVTLSEAGSTAG [PALM] | 5.65 ± 0.15 | 5.58 ± 0.16 | – | – |
| QAQIHGLPVPPTPGLLSLATTSAS [TFE3] | 3.86 ± 0.11 | 3.87 ± 0.18 | – | – |
| RDLAARWKKLVLVDRNTRPGPQDP [ELOA2] | 3.38 ± 0.19 | 3.49 ± 0.23 | – | – |

| Sequence | protein stability index [1] | protein stability index [2] | protein stability index (treatment: DMSO, c terminus: native) | protein stability index (treatment: MLN4924 1 uM, 8 h, c terminus: native) |
| --- | --- | --- | --- | --- |
| VGGGFGGGFGGGDGGLLSGNEKIT [KRT15] | 4.04 ± 0.39 | 4.16 ± 0.14 | – | – |
| YSLVTHIPAGARDIQIVERKKSAD [ADAMTSL2] | 4.37 ± 0.22 | 4.67 ± 0.41 | – | – |
| LPGPAFESYESMELACPAERSGHV [KLHDC2] | 4.41 ± 0.17 | 4.45 ± 0.33 | – | – |
| TMELRNYFSLYCLHQETQLIHVYL [SNX8] | 3.41 ± 0.67 | 2.94 ± 0.72 | – | – |
| QLGDLHTCLMMDMKACQEDDVRLL [INTS3] | 3.41 ± 0.18 | 3.56 ± 0.19 | – | – |
| THRLKDGSTMLIEAAKGGHTSVVC [ANKRD17] | 2.51 ± 0.33 | 2.56 ± 0.33 | – | – |
| TENSALQLQVTEREEVRGRELTGL [LMNB1] | 5.14 ± 0.2 | 5.13 ± 0.28 | – | – |
| TPAPPLWIGLFLVATGSQQSLAQP | 2.57 ± 0.23 | 2.94 ± 0.74 | – | – |
| MRATPLAAPAGSLSRKKRLELDDN [TRIB3] | 4.57 ± 0.14 | 4.86 ± 0.23 | – | – |
| TVNIHRLHVKRSMGWKKACDELEL [ZMYND11] | 2.61 ± 0.32 | 2.77 ± 0.36 | – | – |
| KEQHLWDVDLLDSKVIEILDSQTE [DLC1] | 4.79 ± 0.26 | 4.5 ± 0.18 | – | – |
| VLALGLRTDVGITHQHWQQFEPQL [RSAD1] | 2.23 ± 0.39 | 2.35 ± 0.21 | – | – |
| RAVVEAVHRLDLILCNKTAYQEVF [SMG5] | 2.92 ± 0.43 | 2.92 ± 0.85 | – | – |
| EKEKAEIEAKEACDWLRATGFPQY [DLC1] | 4.02 ± 0.24 | 4.09 ± 0.24 | – | – |
| VETSAKNAININELFIEISRRIPS [RAB22A] | 2.34 ± 0.21 | 2.29 ± 0.52 | – | – |
| QPQALLVDGDQSKILISGLEPSTP [TNXB] | 4.73 ± 0.31 | 4.69 ± 0.23 | – | – |
| ISEHEHFTDFNATSALFWEQHDLV [CLPTM1] | 3.33 ± 0.27 | 3.38 ± 0.35 | – | – |
| EDEEEEEGGEGEKEGEGEVGGEAV [TRIM55] | 5.74 ± 0.24 | 5.7 ± 0.27 | – | – |
| LKQAKELDRERAAANEQLTRAILR [CHCHD3] | 3.56 ± 0.11 | 3.81 ± 0.2 | – | – |
| KQLALDHFKKTKKMGGKDFSFRYQ [ATL3] | 2.86 ± 0.17 | 3.12 ± 0.19 | – | – |
| MGETKIIYHLDGQETPYLVKLPLP [DVL3] | 2.2 ± 0.3 | 2.3 ± 0.23 | – | – |
| GMEGLLGTLVQLLGSDDINVVTCA [CTNNB1] | 2.34 ± 0.55 | 2.46 ± 0.15 | – | – |
| TMKESLTTREIRRQEAIYEMSRGE [NET1] | 4.46 ± 0.26 | 4.68 ± 0.33 | – | – |

| Sequence | protein stability index [1] | protein stability index [2] | protein stability index (treatment: DMSO, c terminus: native) | protein stability index (treatment: MLN4924 1 uM, 8 h, c terminus: native) |
| --- | --- | --- | --- | --- |
| IWSEVFTVEKPGGKKVAVVLMDTQ [ATL3] | 2.2 ± 0.34 | 2.37 ± 0.39 | – | – |
| DILEEEKIYAYPSNITSETGFRTI [TMEM192] | 3.04 ± 0.33 | 3.4 ± 0.25 | – | – |
| VALGHAYHPEEFVCSQCGKVLEEG [PDLIM7] | 3.93 ± 0.34 | 4.03 ± 0.11 | – | – |
| NESRRQIQSLTCEVDGLRGTNEAL [PRPH] | 4.7 ± 0.29 | 5.11 ± 0.056 | – | – |
| IPLEQGSSCNGPGQTTGHPYYLRS [FAN1] | 5.05 ± 0.38 | 5 ± 0.18 | – | – |
| PAEESKPAPSPHEEPCSPGLLQDQ [CBY2] | 5.33 ± 0.27 | 5.14 ± 0.31 | – | – |
| AECALNERGVEGDFLIRDSESSPS [NCK2] | 5.42 ± 0.33 | 5.48 ± 0.2 | – | – |
| GGMALGVAGLAGLIGLAVSKSKS [FIS1] | – | – | 2.35 ± 0.34 | 1.78 ± 0.27 |
| VDNHFNLLTTSPVFPHYIEKPLGR [TRIM43] | 3.05 ± 0.4 | 2.96 ± 0.7 | – | – |
| EDGHRTSTSAVPNLFVPLNTNPKE [ADD1] | 4.89 ± 0.24 | 5.07 ± 0.11 | – | – |
| VQPMDRLPYQHFSAHFTSGPLVPR [TBX5] | 2.88 ± 0.27 | 2.88 ± 0.33 | – | – |
| AFQNDVYEWARDHRAHHKFSETHA [SCD] | 2.65 ± 0.22 | 2.69 ± 0.33 | – | – |
| LDDSTVARELAITDSEHSDAEVSC [RETREG3] | 5.52 ± 0.23 | 5.47 ± 0.24 | – | – |
| AVTLRCGHNFCRGCVSRCWEVQVS [TRIM35] | 2.62 ± 0.12 | 2.33 ± 0.43 | – | – |
| LTTCTSNVAASNAKLALFYDWLFF [INTS3] | 2.33 ± 0.45 | 2.66 ± 0.54 | – | – |
| GSLSLSFEREPSTSDLGTTDVQKK [RIPK4] | 5.26 ± 0.45 | 5.31 ± 0.064 | – | – |
| TDLKTLCCEFLEGCIAAENCIGIR [GAN] | 2.35 ± 0.4 | 2.48 ± 0.2 | – | – |
| QAALRAARLRHQELFRLRGIKAQV [NOP53] | 2.4 ± 0.19 | 2.86 ± 0.57 | – | – |
| RWDMADNEQVLTTEHEKKQKLETD [YJU2B] | 5.39 ± 0.32 | 5.37 ± 0.21 | – | – |
| IQQALTMFPGVLLPLLESCSVRPD [TCF25] | 2.4 ± 0.5 | 3.18 ± 0.58 | – | – |
| SLFSYGLRESIASYLSLTSEDNTS [SLA] | 2.49 ± 0.19 | 2.61 ± 0.22 | – | – |
| MAEHRSMDGRMEAATRGGSHLQAA [SCNN1D] | 4.56 ± 0.27 | 4.648 ± 0.04 | – | – |
| AGGEKGPQAFPMSRLWDSRLRHYL [DNAAF3] | 2.12 ± 0.077 | 2.54 ± 0.065 | – | – |

| Sequence | protein stability index [1] | protein stability index [2] | protein stability index (treatment: DMSO, c terminus: native) | protein stability index (treatment: MLN4924 1 uM, 8 h, c terminus: native) |
| --- | --- | --- | --- | --- |
| DLDRMGVMTLPSDLRKHRRKLLSP [PPFIA4] | 3.72 ± 0.25 | 3.73 ± 0.12 | – | – |
| ARSESVLLHMPQPVNPELTAGPIT [TRIM43] | 4.31 ± 0.061 | 4.41 ± 0.078 | – | – |
| LAEMKDDSDSEKQQQIHHIKNLYA [VPS39] | 4.16 ± 0.25 | 4.35 ± 0.44 | – | – |
| KRLSRFDIEMSMRGDIFERIVHLQ [NLN] | 1.84 ± 0.33 | 2 ± 0.026 | – | – |
| ITVKNLRMAIGYLHSHRHLYPEGI [POMT2] | 3.02 ± 0.38 | 2.88 ± 0.58 | – | – |
| AGSSTWERYFIPVSCFLTFNIFDW [SLC29A1] | 3.09 ± 0.2 | 3.05 ± 0.58 | – | – |
| GLKLIQIQDNGTGIRKEDLDIVCE [MLH1] | 3.56 ± 0.37 | 3.87 ± 0.75 | – | – |
| EEVDQMFQFASIDVAGNLDYKALS [MYL5] | 4.27 ± 0.3 | 4.39 ± 0.27 | – | – |
| MTEEVIVIAKWDYTAQQDQELDIK [NCK2] | 2.92 ± 0.29 | 2.97 ± 0.33 | – | – |
| GSARSHASSRASENQSPSSSNYFS [ZBTB22] | 4.28 ± 0.22 | 4.74 ± 0.2 | – | – |
| GYCSNQLAAKALLDQKKQDPRVQD [NET1] | 4.89 ± 0.23 | 4.9 ± 0.21 | – | – |
| VMLKRIHSLYRRTGASFQKAQQEF [SCAMP3] | 2.49 ± 0.35 | 2.68 ± 0.46 | – | – |
| APAFRLSLKAKVSDNMSHLMVDFA [FSD1] | 2.28 ± 0.1 | 2.25 ± 0.12 | – | – |
| IMTDLYYLSQTDGAGDWREKEAKD [FUT8] | 3.59 ± 0.42 | 3.69 ± 0.32 | – | – |
| MIQTSKTEITELRRTLQGLEIELQ [KRT13] | 3.02 ± 0.28 | 3.07 ± 0.24 | – | – |
| YSSQLSQVQSLITNVESQLAEIRS [KRT33B] | 3.49 ± 0.1 | 3.66 ± 0.2 | – | – |
| AILYYYQSGGRLRRPVNVPLDMFS [KCNA1] | 2.69 ± 0.84 | 2.29 ± 0.42 | – | – |
| SKKTFQITKQGDGVDFLSWFLNAL [USP39] | 2.35 ± 0.16 | 2.29 ± 0.24 | – | – |
| NGDITSFLLSVYAPGSSVEYQCQN [CFHR2] | 2.38 ± 0.58 | 2.09 ± 0.24 | – | – |
| VHKTKEQFGQDGPISVHCSAGVGR [PTPRD] | 4.02 ± 0.23 | 4.15 ± 0.25 | – | – |
